Laboratory results from US20260227416A1 (published 2026).

Target: T1, CD20 on SU-DHL4 cells (UniProt P11836 1-297, limits assumed)
T1 sequence (looked up): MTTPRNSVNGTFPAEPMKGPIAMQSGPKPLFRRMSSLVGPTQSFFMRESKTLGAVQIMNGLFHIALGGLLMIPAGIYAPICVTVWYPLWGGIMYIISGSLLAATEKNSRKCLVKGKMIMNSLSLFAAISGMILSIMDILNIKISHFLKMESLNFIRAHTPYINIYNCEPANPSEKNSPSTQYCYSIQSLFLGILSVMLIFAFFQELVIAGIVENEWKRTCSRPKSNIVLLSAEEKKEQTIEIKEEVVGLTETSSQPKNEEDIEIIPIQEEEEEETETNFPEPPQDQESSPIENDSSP
Test: cell-based or functional assay

B1: Rituximab chimeric antibody (antibody, human IgG1, kappa, V domains shown)
VH: VQLQQPGAELVKPGASVKMSCKASGYTFTSYNMHWVKQTPGRGLEWIGAIYPGNGDTSYNQKFKGKATLTADKSSSTAYMQLSSLTSEDSAVYYCARSTYYGGDWYFNVWGAGTTVTVSA
VL: QIVLSQSPAILSASPGEKVTMTCRASSSVSYIHWFQQKPGSSPKPWIYATSNLASGVPVRFSGSGSGTSYSLTISRVEAEDAATYYCQQWTSNPPTFGGGTKLEIKR
  EC50 values of target cell killing (ADCC, SU-DHL4 target cells): ~10 ng/mL
